Laboratory results: PMC3882083 (Nature methods, 2013)

Tests used:
[1] = target: 3XFLAG-CDK4 R24C (human, UniProt P11802 1-303, R24C); assay: affinity purification with mass spectrometry
[2] = target: 3XFLAG-CDK4 R24H (human, UniProt P11802 1-303, R24H); assay: affinity purification with mass spectrometry
Sequence of 3XFLAG-CDK4 R24H (P11802 whole entry R24H): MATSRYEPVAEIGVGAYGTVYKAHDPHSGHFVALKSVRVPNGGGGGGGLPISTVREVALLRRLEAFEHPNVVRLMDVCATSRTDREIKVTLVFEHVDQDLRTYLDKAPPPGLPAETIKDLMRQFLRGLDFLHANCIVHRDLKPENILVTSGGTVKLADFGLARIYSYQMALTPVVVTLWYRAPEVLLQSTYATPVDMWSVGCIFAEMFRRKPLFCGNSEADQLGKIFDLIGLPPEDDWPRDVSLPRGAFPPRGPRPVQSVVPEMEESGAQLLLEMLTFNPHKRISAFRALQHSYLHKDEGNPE

Sequence of 3XFLAG-CDK4 R24C (P11802 whole entry R24C): as the sequence (P11802 whole entry R24H) above, with H24C counted along it

fold increase against CDK4 WT [1] | fold increase against CDK4 WT [2] | Binder
≥ 3.9 fold | ≥ 3.9 fold | CDC37 co-chaperone (natural protein) MVDYSVWDHIEVSDDEDETHPNIDTASLFRWRHQARVERMEQFQKEKEELDRGCRECKRKVAECQRKLKELEVAEGGKAELERLQAEAQQLRKEERSWEQKLEEMRKKEKSMPWNVDTLSKDGFSKSMVNTKPEKTEEDSEEVREQKHKTFVEKYEKQIKHFGMLRRWDDSQKYLSDNVHLVCEETANYLVIWCIDLEVEEKCALMEQVAHQTIVMQFILELAKSLKVDPRACFRQFFTKIKTADRQYMEGFNDELEAFKERVRGRAKLRIEKAMKEYEEEERKKRLGPGGLDPVEVYESLPEELQKCFDVKDVQMLQDAISKMDPTDAKYHMQRCIDSGLWVPNSKASEAKEGEEAGPGDPLLEAVPKTGDEKDVSV
≥ 3 fold | ≥ 3 fold | HSP90AB1 (natural protein) not shown
